How the values were obtained:
Assay in all cases: cell-based or functional assay
[1] = biological target: HIV-1 92TH021 Env (on pseudovirus) (HIV-1)
[2] = biological target: HIV-1 envelope glycoprotein (Env) of isolate MGRM-C-022, on pseudovirus (HIV-1)
[3] = biological target: HIV-1 envelope glycoprotein (Env) of isolate MGRM-C-020, on pseudovirus (HIV-1)
[4] = biological target: HIV-1 92UG005 Env (on pseudovirus) (HIV-1)
[5] = biological target: HIV-1 MGRM-D-018 Env (on pseudovirus) (HIV-1)
[6] = biological target: HIV-1 MGRM-A-010 Env (on pseudovirus) (HIV-1)
[7] = biological target: HIV-1 CMU02 Env (on pseudovirus) (HIV-1)
[8] = biological target: HIV-1 NL43 Env (on pseudovirus) (HIV-1)
[9] = biological target: HIV-1 Env of isolate MGRM-D-026 (HIV-1)
[10] = biological target: HIV-1 Env of isolate MGRM-A-003 (HIV-1)
[11] = biological target: HIV-1 Env of isolate 92TH021 (HIV-1)
[12] = biological target: HIV-1 Env of isolate MGRM-A-010 (HIV-1)
[13] = biological target: HIV-1 Env of isolate MGRM-A-005 (HIV-1)
[14] = biological target: HIV-1 Env of isolate 98CN006 (HIV-1)
[15] = biological target: HIV-1 Env of isolate MGRM-A-012 (HIV-1)
[16] = biological target: HIV-1 Env of isolate VLGCA1 (HIV-1)
[17] = biological target: HIV-1 Env of isolate MGRM-F1-012 (HIV-1)
[18] = biological target: HIV-1 NL43 envelope protein (Env) on pseudotyped virus (HIV-1 NL43)
[19] = biological target: HIV-1 Env of isolate MGRM-G-019 (clade G pseudovirus) (HIV-1)
[20] = biological target: HIV-1 93IN905 envelope glycoprotein (Env) on pseudovirus (HIV-1)
[21] = biological target: HIV-1 IAVI-C22 envelope protein (Env) on pseudovirus (HIV-1)
[22] = biological target: HIV-1 92TH021 envelope protein (Env) on pseudovirus (HIV-1)
[23] = biological target: HIV-1 MGRM-A-007 envelope glycoprotein (Env) (HIV-1)
[24] = biological target: HIV-1 MGRM-C-027 envelope glycoprotein (Env) (HIV-1)
[25] = biological target: HIV-1 NL43 envelope glycoprotein (Env) (HIV-1)
[26] = biological target: HIV-1 MGRM-C-007 Env (HIV-1)
[27] = biological target: HIV-1 JRCSF envelope glycoprotein (Env) (HIV-1) (UniProt P20871)
[28] = biological target: HIV-1 JR-CSF envelope protein (Env) on pseudotyped virus (HIV-1 isolate JR-CSF) (UniProt P20871)

PGT-142 (4995_E20) (antibody), sequence (VH): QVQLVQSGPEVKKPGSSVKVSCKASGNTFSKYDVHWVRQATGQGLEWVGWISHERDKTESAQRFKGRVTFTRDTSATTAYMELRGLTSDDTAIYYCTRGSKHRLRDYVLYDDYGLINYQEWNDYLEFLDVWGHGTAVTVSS
PGT-142 (4995_E20) (antibody), sequence (VL): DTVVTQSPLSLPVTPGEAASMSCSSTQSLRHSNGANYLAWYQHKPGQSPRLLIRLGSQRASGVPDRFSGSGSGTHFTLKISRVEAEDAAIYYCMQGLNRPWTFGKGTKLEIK
PGT-141 (4964_G22; 4993_K13) (antibody), sequence (VH): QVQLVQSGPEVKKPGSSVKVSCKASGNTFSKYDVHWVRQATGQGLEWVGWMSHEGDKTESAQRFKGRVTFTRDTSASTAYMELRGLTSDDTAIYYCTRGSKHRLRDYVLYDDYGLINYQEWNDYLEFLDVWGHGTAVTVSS
PGT-144 (4970_K22) (antibody), sequence (VH): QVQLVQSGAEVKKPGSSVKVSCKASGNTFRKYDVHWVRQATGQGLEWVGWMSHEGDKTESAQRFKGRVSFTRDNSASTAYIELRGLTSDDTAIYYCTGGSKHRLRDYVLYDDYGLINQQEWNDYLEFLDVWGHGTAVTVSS
PGT-144 (4970_K22) (antibody), sequence (VL): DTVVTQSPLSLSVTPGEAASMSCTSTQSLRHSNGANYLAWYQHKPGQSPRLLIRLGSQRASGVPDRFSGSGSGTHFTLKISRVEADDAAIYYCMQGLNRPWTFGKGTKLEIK
PGT-143 (4980_N08) (antibody), sequence (VH): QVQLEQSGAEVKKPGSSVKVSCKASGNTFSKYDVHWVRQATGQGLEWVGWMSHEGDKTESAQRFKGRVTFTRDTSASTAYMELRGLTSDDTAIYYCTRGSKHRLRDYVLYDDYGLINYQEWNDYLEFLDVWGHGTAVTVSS
PGT-143 (4980_N08) (antibody), sequence (VL): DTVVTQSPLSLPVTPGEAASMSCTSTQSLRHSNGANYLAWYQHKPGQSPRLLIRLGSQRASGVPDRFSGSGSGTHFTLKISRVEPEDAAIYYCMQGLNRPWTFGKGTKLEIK

| Substance | IC50 (ug/ml), pseudovirus neutralization [1] [µg/mL] | IC50, pseudovirus neutralization [2] [µg/mL] | IC50, pseudovirus neutralization [3] [µg/mL] | IC50 (ug/ml), pseudovirus neutralization [4] [µg/mL] | IC50 (ug/ml), pseudovirus neutralization [5] [µg/mL] | IC50 (ug/ml), pseudovirus neutralization [6] [µg/mL] | IC50 (ug/ml), pseudovirus neutralization [7] [µg/mL] | IC50 (ug/ml), pseudovirus neutralization [8] [µg/mL] | IC50 (µg/mL), pseudovirus neutralization [11] [µg/mL] | IC50 (µg/mL), pseudovirus neutralization [12] [µg/mL] | IC50 (µg/mL), pseudovirus neutralization [15] [µg/mL] | IC50 (µg/mL), pseudovirus neutralization [16] [µg/mL] | IC50 neutralization [24] [µg/mL] | IC50 neutralization [25] [µg/mL] | IC50 neutralization [27] [µg/mL] | further results |
| --- | --- | --- | --- | --- | --- | --- | --- | --- | --- | --- | --- | --- | --- | --- | --- | --- |
| PGT-143 (4980_N08) (antibody) | 0.0028 | 0.103 | 0.797 | > 10 | > 10 | 0.0657 | > 10 | 0.585 | – | – | – | – | – | – | – | – |
| PGV04 (antibody) | – | – | – | – | – | – | – | – | 1.29 | 0.205 | 0.225 | 0.024 | – | – | – | IC50 (µg/mL), pseudovirus neutralization [9]: 1.76 µg/mL; IC50 [10]: 0.128 µg/mL; IC50 [13]: 0.134 µg/mL; IC50, pseudovirus neutralization [14]: 1.32 µg/mL; IC50 (µg/mL), pseudovirus neutralization [17]: 0.25 µg/mL |
| PGT-144 (4970_K22) (antibody) | 0.0934 | 2.58 | 1.29 | > 10 | > 10 | 4.02 | > 10 | > 10 | – | – | – | – | – | – | – | – |
| 1496_C09 (PG9) (TCN-109) (antibody) | – | – | – | – | – | – | – | – | 0.059 | 0.022 | 19.3 | 0.069 | 2.45 | 0.687 | 0.0048 | IC50, pseudovirus neutralization, 1 hour Virus/Ab Incubation [18]: 0.294 µg/mL; IC50, pseudovirus neutralization, 18 hour Virus/Ab Incubation [18]: 38 µg/mL; IC50 (µg/mL), pseudovirus neutralization [9]: 23.7 µg/mL; IC50 (µg/ml), pseudovirus neutralization [19]: 0.67 µg/mL; IC50 (ug/ml), neutralizing activity [20]: 0.048 µg/mL; IC50 neutralization [20]: 0.048 µg/mL; IC80, neutralization [20]: 0.308 µg/mL; IC90 (pseudovirus neutralization) [20]: 1.89 µg/mL; IC90, neutralization [20]: 0.981 µg/mL; IC95, neutralization [20]: 3.31 µg/mL; neutralization IC50 [21]: 24.9 µg/mL; neutralization IC50 [22]: 0.111 µg/mL; IC50 (µg/ml), pseudovirus neutralization [23]: 0.37 µg/mL; IC50 [10]: 1.94 µg/mL; IC50 (µg/ml), pseudovirus neutralization [11]: 0.09 µg/mL; IC50 [13]: 0.75 µg/mL; IC50 [26]: 0.09 µg/mL; IC50 (µg/mL), pseudovirus neutralization [17]: 0.023 µg/mL; IC50, pseudovirus neutralization, 1 hour Virus/Ab Incubation [28]: < 0.0025 µg/mL; IC50, pseudovirus neutralization, 18 hour Virus/Ab Incubation [28]: < 0.0025 µg/mL |
| PGT-121 (antibody) | – | – | – | – | – | – | – | – | > 50 | 2.44 | 0.092 | > 50 | 0.0094 | > 10 | 0.0343 | IC50 (µg/mL), pseudovirus neutralization [10]: 0.435 µg/mL; IC50 (µg/mL), pseudovirus neutralization [13]: > 50 µg/mL |
| PGT-122 (antibody) | – | – | – | – | – | – | – | – | > 50 | 2.51 | 0.257 | > 50 | 0.0388 | > 10 | 0.0727 | IC50 (µg/mL), pseudovirus neutralization [10]: 3.79 µg/mL; IC50 (µg/mL), pseudovirus neutralization [13]: > 50 µg/mL |
| PGT-142 (4995_E20) (antibody) | 0.0022 | 0.086 | 0.446 | > 10 | > 10 | 0.0578 | > 10 | 0.712 | – | – | – | – | – | – | – | – |
| PGT-141 (4964_G22; 4993_K13) (antibody) | 0.0019 | 0.381 | 1.34 | > 10 | > 10 | 0.0563 | > 10 | 0.856 | – | – | – | – | – | – | – | – |
